# Results taken from article PMC2119998.
# Key:
# Test in all cases: radioligand binding
# [1] = biological target: Ng-CAM and N-CAM (physiological salt)
# laminin = biological target: laminin
# [2] = biological target: Ng-CAM (chicken) (chicken) (UniProt Q03696)
# Chain of Ng-CAM (chicken) (chicken) (Q03696 21-1266): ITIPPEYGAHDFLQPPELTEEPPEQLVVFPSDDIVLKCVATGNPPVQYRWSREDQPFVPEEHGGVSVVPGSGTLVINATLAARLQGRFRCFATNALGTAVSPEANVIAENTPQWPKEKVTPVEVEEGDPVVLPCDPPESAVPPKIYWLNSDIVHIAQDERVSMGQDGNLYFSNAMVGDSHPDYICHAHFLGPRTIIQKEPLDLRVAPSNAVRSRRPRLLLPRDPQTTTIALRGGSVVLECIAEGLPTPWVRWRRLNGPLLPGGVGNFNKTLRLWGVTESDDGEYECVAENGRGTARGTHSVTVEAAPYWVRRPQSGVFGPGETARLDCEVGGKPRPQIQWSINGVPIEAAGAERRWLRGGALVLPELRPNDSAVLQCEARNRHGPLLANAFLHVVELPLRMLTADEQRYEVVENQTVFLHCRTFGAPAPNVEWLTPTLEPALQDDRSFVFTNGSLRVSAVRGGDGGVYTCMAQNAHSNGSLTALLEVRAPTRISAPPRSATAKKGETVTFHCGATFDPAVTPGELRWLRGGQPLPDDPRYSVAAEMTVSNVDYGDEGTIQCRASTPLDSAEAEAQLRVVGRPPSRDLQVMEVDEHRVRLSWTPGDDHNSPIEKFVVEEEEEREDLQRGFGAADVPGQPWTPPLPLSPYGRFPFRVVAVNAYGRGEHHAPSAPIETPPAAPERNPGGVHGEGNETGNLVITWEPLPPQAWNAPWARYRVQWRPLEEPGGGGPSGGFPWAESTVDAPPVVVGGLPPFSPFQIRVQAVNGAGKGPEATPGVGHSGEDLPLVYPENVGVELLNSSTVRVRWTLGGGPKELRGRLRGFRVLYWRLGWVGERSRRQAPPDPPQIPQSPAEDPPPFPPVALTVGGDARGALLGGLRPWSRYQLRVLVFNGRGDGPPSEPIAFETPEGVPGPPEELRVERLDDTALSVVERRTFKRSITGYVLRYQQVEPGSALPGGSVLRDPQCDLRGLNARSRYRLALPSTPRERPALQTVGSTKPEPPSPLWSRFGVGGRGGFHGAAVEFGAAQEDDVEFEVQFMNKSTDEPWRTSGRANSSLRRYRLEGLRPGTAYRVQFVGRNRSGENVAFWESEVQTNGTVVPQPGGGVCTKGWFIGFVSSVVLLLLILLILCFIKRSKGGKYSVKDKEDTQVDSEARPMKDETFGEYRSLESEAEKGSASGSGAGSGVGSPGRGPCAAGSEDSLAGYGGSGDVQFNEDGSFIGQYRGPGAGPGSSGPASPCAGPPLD
# Chain of neurocan (P55067 23-1257): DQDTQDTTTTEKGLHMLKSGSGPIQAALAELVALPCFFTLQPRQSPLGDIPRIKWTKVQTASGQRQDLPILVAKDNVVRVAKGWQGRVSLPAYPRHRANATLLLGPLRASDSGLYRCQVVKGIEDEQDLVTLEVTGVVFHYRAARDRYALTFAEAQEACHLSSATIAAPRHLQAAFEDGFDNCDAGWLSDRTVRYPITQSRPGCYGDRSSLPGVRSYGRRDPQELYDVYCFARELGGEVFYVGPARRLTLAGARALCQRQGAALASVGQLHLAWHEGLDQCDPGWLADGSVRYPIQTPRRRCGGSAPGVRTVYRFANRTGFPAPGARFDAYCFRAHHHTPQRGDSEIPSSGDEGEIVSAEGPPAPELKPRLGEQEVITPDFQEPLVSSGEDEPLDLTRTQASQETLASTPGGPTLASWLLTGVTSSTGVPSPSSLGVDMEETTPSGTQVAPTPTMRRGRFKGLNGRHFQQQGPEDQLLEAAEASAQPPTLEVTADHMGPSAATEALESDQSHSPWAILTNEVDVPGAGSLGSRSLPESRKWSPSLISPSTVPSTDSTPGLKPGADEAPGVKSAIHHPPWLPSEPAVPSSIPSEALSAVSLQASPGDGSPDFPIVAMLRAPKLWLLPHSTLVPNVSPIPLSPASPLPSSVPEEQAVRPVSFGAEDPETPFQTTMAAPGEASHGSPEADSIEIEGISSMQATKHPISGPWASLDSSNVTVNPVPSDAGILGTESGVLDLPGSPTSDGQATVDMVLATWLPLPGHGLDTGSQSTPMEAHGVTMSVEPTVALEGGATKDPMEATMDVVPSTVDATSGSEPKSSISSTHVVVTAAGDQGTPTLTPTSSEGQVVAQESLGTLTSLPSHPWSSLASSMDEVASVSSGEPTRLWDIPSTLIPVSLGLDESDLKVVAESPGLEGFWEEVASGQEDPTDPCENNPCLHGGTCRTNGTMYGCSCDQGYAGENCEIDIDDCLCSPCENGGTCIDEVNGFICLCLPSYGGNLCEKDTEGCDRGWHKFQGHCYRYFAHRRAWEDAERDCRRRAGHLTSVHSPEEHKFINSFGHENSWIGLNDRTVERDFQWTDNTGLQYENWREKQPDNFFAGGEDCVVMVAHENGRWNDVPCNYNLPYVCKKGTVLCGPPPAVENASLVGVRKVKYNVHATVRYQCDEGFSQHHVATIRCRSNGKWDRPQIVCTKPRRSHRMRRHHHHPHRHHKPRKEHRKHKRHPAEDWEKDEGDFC
percent decrease of binding in isotonic against hypotonic buffer [1] [%],percent of total counts bound (laminin) [%],Kd [2] [nM],t1/2 of dissociation in excess buffer [2] [h],Substance
35 to 60,9,–,–,neurocan (from UniProt P55067 23-1257) (natural protein)
–,–,5.3,4,neurocan-C (domain or fragment)
